The target in this assay is Fc-binding nanodisc F-ND_(P2N2), made with F-MSP2N2. As to the kind of experiment: SEC.

Consider immunoglobulin G (IgG) (antibody), for which the stoichiometry N stood at 1 molar ratio.

The record behind these values is PMC11761773.
